According to paper PMC10281804 (2023):

B1: mCherry-KANK1 wild type (human full-length KANK1) [human] / GFP-talin1-cBAK [mouse] (parent complex)
chain 1: MAHTTKVNGSASGKAGDILSGDQDKEQKDPYFVETPYGYQLDLDFLKYVDDIQKGNTIKRLNIQKRRKPSVPCPEPRTTSGQQGIWTSTESLSSSNSDDNKQCPNFLIARSQVTSTPISKPPPPLETSLPFLTIPENRQLPPPSPQLPKHNLHVTKTLMETRRRLEQERATMQMTPGEFRRPRLASFGGMGTTSSLPSFVGSGNHNPAKHQLQNGYQGNGDYGSYAPAAPTTSSMGSSIRHSPLSSGISTPVTNVSPMHLQHIREQMAIALKRLKELEEQVRTIPVLQVKISVLQEEKRQLVSQLKNQRAASQINVCGVRKRSYSAGNASQLEQLSRARRSGGELYIDYEEEEMETVEQSTQRIKEFRQLTADMQALEQKIQDSSCEASSELRENGECRSVAVGAEENMNDIVVYHRGSRSCKDAAVGTLVEMRNCGVSVTEAMLGVMTEADKEIELQQQTIESLKEKIYRLEVQLRETTHDREMTKLKQELQAAGSRKKVDKATMAQPLVFSKVVEAVVQTRDQMVGSHMDLVDTCVGTSVETNSVGISCQPECKNKVVGPELPMNWWIVKERVEMHDRCAGRSVEMCDKSVSVEVSVCETGSNTEESVNDLTLLKTNLNLKEVRSIGCGDCSVDVTVCSPKECASRGVNTEAVSQVEAAVMAVPRTADQDTSTDLEQVHQFTNTETATLIESCTNTCLSTLDKQTSTQTVETRTVAVGEGRVKDINSSTKTRSIGVGTLLSGHSGFDRPSAVKTKESGVGQININDNYLVGLKMRTIACGPPQLTVGLTASRRSVGVGDDPVGESLENPQPQAPLGMMTGLDHYIERIQKLLAEQQTLLAENYSELAEAFGEPHSQMGSLNSQLISTLSSINSVMKSASTEELRNPDFQKTSLGKITGNYLGYTCKCGGLQSGSPLSSQTSQPEQEVGTSEGKPISSLDAFPTQEGTLSPVNLTDDQIAAGLYACTNNESTLKSIMKKKDGNKDSNGAKKNLQFVGINGGYETTSSDDSSSDESSSSESDDECDVIEYPLEEEEEEEDEDTRGMAEGHHAVNIEGLKSARVEDEMQVQECEPEKVEIRERYELSEKMLSACNLLKNTINDPKALTSKDMRFCLNTLQHEWFRVSSQKSAIPAMVGDYIAAFEAISPDVLRYVINLADGNGNTALHYSVSHSNFEIVKLLLDADVCNVDHQNKAGYTPIMLAALAAVEAEKDMRIVEELFGCGDVNAKASQAGQTALMLAVSHGRIDMVKGLLACGADVNIQDDEGSTALMCASEHGHVEIVKLLLAQPGCNGHLEDNDGSTALSIALEAGHKDIAVLLYAHVNFAKAQSPGTPRLGRKTSPGPTHRGSFD
chain 2: MVALSLKISIGNVVKTMQFEPSTMVYDACRMIRERIPEALAGPPNDFGLFLSDDDPKKGIWLEAGKALDYYMLRNGDTMEYRKKQRPLKIRMLDGTVKTIMVDDSKTVTDMLMTICARIGITNHDEYSLVRELMEEKKDEGTGTLRKDKTLLRDEKKMEKLKQKLHTDDELNWLDHGRTLREQGVEEHETLLLRRKFFYSDQNVDSRDPVQLNLLYVQARDDILNGSHPVSFDKACEFAGFQCQIQFGPHNEQKHKAGFLDLKDFLPKEYVKQKGERKIFQAHKNCGQMSEIEAKVRYVKLARSLKTYGVSFFLVKEKMKGKNKLVPRLLGITKECVMRVDEKTKEVIQEWSLTNIKRWAASPKSFTLDFGDYQDGYYSVQTTEGEQIAQLIAGYIDIILKKKKSKDHFGLEGDEESTMLEDSVSPKKSTVLQQQYNRVGKVEHGSVALPAIMRSGASGPENFQVGSMPPAQQQITSGQMHRGHMPPLTSAQQALTGTINSSMQAVQAAQATLDDFETLPPLGQDAASKAWRKNKMDESKHEIHSQVDAITAGTASVVNLTAGDPAETDYTAVGCAVTTISSNLTEMSRGVKLLAALLEDEGGNGRPLLQAAKGLAGAVSELLRSAQPASAEPRQNLLQAAGNVGQASGELLQQIGESDTDPHFQDVLMQLAKAVASAAAALVLKAKSVAQRTEDSGLQTQVIAAATQCALSTSQLVACTKVVAPTISSPVCQEQLVEAGRLVAKAVEGCVSASQAATEDGQLLRGVGAAATAVTQALNELLQHVKAHATGAGPAGRYDQATDTILTVTENIFSSMGDAGEMVRQARILAQATSDLVNAIKADAEGESDLENSRKLLSAAKILADATAKMVEAAKGAAAHPDSEEQQQRLREAAEGLRMATNAAAQNAIKKKLVQRLEHAAKQAAASATQTIAAAQHAASAPKASAGPQPLLVQSCKAVAEQIPLLVQGVRGSQAQPDSPSAQLALIAASQSFLQPGGKMVAAAKASVPTIQDQASAMQLSQCAKNLGTALAELRTAAQKAQEACGPLEMDSALSVVQNLEKDLQEIKAAARDGKLKPLPGETMEKCTQDLGNSTKAVSSAIAKLLGEIAQGNENYAGIAARDVAGGLRSLAQAARGVAALTSDPAVQAIVLDTASDVLDKASSLIEEAKKASGHPGDPESQQRLAQVAKAVTQALNRCVSCLPGQRDVDNALRAVGDASKRLLSDSLPPSTGTFQEAQSRLNEAAAGLNQAATELVQASRGTPQDLARASGRFGQDFSTFLEAGVEMAGQAPSQEDRAQVVSNLKGISMSSSKLLLAAKALSTDPASPNLKSQLAAAARAVTDSINQLITMCTQQAPGQKECDNALRQLETVRELLENPVQPINDMSYFGCLDSVMENSKVLGEAMTGISQNAKNGNLPEFGDAIATASKALCGFTEAAAQAAYLVGVSDPNSQAGQQGLVEPTQFARANQAIQMACQSLGEPGCTQAQVLSAATIVAKHTSALCNSCRLASARTANPTAKRQFVQSAKEVANSTANLVKTIKALDGDFTEENRAQCRAATAPLLEAVDNLSAFASNPEFSSVPAQISPEGRAAMEPIVISAKTMLESAGGLIQTARALAVNPRDPPRWSVLAGHSRTVSDSIKKLITSMRDKAPGQLECETAIAALNSCLRDLDQASLAAVSQQLAPREGISQEALHTQMLTAVQEISHLIEPLASAARAEASQLGHKVSQMAQYFEPLTLAAVGAASKTLSHPQQMALLDQTKTLAESALQLLYTAKEAGGNPKQAAHTQEALEEAVQMMTEAVEDLTTTLNEAASAAGVVGGMVDSITQAINQLDEGPMGDPEGSFVDYQTTMVRTAKAIAVTVQEMVTKSNTSPEELGPLANQLTSDYGRLASQAKPAAVAAENEEIGAHIKHRVQELGHGCSALVTKAGALQCSPSDVYTKKELIECARRVSEKVSHVLAALQAGNRGTQACITAASAVSGIIADLDTTIMFATAGTLNREGAETFADHREGILKTAKVLVEDTKVLVQNAAGSQEKLAQAAQSSVATITRLADVVKLGAASLGAEDPETQVVLINAVKDVAKALGDLISATKAAAGKVGDDPAVWQLKNSAKVMVTNVTSLLKTVKAVEDEATKGTRALEATTEHIRQELAVFCSPEPPAKTSTPEDFIRMTKGITMATAKAVAAGNSCRQEDVIATANLSRRAIADMLRACKEAAFHPEVAPDVRLRALHYGRECANGYLELLDHVLLTLQKPNPDLKQQLTGHSKRVAGSVTELIQAAEAMKGTEWVDPEDPTVIAENELLGAAAAIEAAAKKLEQLKPRAKPKEADESLNFEEQILEAAKSIAAATSALVKAASAAQRELVAQGKVGAIPANALDDGQWSQGLISAARMVAAATNNLCEAANAAVQGHASQEKLISSAKQVAASTAQLLVACKVKADQDSEAMKRLQAAGNAVKRASDNLVKAAQKAAAFEDQENETVVVKEKMVGGIAQIIAAQEEMLRKERELEEARKKLAQIRQQQYKFLPSELRDEH

Variants of: B1
Assay: mitochondria pulldown (MTS assay), Western blot quantification; HEK293T cells; triplicate experiments; read off a plot

Variant	percent of parent [%]
chain 1 V49E	~2
